Reference: publication doi:10.1101/2023.01.03.522599, “Crystal structure of a mammalian CMTM6 and its interaction model with PD-L1” (bioRxiv, 2023)

Molecular target: T1, human PD-L1, BRIL fused to the C-terminus, C-terminally His-tagged (human, UniProt Q9NZQ7 19-290)
T1 construct: PD-L1, human; probably ED, TMD and CD together; also called hPD-L1; source: purified; not shown: BRIL, C-terminal, kept; His-tag, C-terminal, kept
Experiment: pull-down; purified C-terminally His-tagged hPD-L1 variants (BRIL fused) used to pull down purified His-tag free bCMTM6 variants (BRIL fused); examined by SDS-PAGE
Conditions: both partners purified

T1 sequence (Q9NZQ7 19-290): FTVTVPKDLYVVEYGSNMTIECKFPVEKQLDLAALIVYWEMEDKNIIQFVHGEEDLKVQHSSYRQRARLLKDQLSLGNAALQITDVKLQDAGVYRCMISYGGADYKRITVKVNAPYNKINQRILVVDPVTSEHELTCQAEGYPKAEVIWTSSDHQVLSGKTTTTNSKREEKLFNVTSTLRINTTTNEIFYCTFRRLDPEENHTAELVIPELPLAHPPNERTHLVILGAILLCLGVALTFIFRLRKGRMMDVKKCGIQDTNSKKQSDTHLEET

binding result: binds
B1: bovine CMTM6 protein (CKLF-like MARVEL transmembrane domain-containing protein 6), BRIL fused to the C-terminus (natural protein, UniProt Q3ZBE8 1-182, looked up)
chain: MENGQVYRATTEAHPGPGIGPRSGLAAYFTLSRLTGFRRLKLLELVLSLLAFICEEVVSQCTLCGGLYFFEFVSCSAFLLSLLILVVYCTPVYDRVDPAKVKSSDFFITLGTGLVFFVASLTFTLTHDNTIAEIAAIVFGMLASLTYLAEFSFMLREKLKEPRPRKGEATMRREHLTEPLNA
notes: CMTM6, bovine; the crystal structure holds residues 33-165, and 32 amino-terminal and 17 carboxy-terminal residues were not modeled; Whether BRIL was on the crystallized sample is not clear from 'bCMTM6(-BRIL)'; also called bCMTM6; bCMTM6(-BRIL); source: purified (size-exclusion column); not shown: BRIL, C-terminal, kept
